This is an account of results in paper PMC3197615.

For assay [1], the target named is human Ephrin A4 on transduced WOP cells (human) (UniProt P52798).
In assay [2] the target is mouse Ephrin A4 on transduced WOP cells (mouse) (UniProt O08542).
In assay [3] the target is rat Ephrin A4 on transduced WOP cells (rat).

Chain of UniProt P52798 (P52798 26-170): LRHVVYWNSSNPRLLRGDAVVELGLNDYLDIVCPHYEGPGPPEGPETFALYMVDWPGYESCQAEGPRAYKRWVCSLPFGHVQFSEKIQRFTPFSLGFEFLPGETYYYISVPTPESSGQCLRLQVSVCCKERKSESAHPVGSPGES
Chain of UniProt O08542 (O08542 26-175): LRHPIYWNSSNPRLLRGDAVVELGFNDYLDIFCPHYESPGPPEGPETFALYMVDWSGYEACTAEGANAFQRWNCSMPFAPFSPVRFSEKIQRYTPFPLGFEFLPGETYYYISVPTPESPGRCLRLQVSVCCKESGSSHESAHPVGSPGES

Turning to “IAPE Env (IAPE D2*) on transfected 293T cells (natural protein)”, the fold increase of the titre of IAPE Env pseudotypes over no-Env pseudotypes on transduced WOP cells (fold increase) in assay [1] was found to be 231; in assay [2], 16; in assay [3] it was 16.
